pKd: −log10 of the molar value.

Assay [1] has as its target heat-aggregated IgG (HAGG). Kind of assay: flow cytometry, block of HAGG binding to IIA1.6 cells with human FcγRIIb.
Assay [2] concerns the target heat-aggregated IgG (HAGG). Description: cell-based or functional assay.
In assay [3] the target is immune complexes consisting of ovalbumin and anti-ovalbumin antibody (OVA ICs). Description: cell-based or functional assay.
Assay [4] concerns the target human IgG monomer (Sandoglobulin, Novartis) (human). Kind of assay: BIAcore equilibrium binding, receptor injected over immobilised IgG; single-binding site. In general terms: SPR reads the build-up and loss of mass on a sensor chip optically.
For assay [5], the target named is dimer-IgG (Wright et al.), small immune complex. Description: flow cytometry, inhibition of dimer-IgG binding to human neutrophils. (In general: Flow cytometry measures light scatter and fluorescence of single cells or particles in a stream.)
For assay [6], the target named is heat-aggregated IgG (HAGG). Description: BIAcore equilibrium binding, receptor injected over immobilised HAGG; single-binding site.
For assay [7], the target named is heat-aggregated IgG (HAGG). Kind of assay: BIAcore equilibrium binding over immobilised HAGG; two-binding site model, KD1.
Assay [8] concerns the target human IgG monomer (Sandoglobulin, Novartis) (human). Description: BIAcore equilibrium binding over immobilised human IgG monomer; two-binding site model, KD1.
Assay [9] shares this target. Description: BIAcore equilibrium binding over immobilised human IgG monomer; two-binding site model, KD2.
Assay [10] addresses heat-aggregated IgG (HAGG). Description: BIAcore equilibrium binding over immobilised HAGG; two-binding site model, KD2.
In assay [11] the target is dimer-IgG (Wright et al.), small immune complex. Kind of assay: flow cytometry, inhibition of dimer-IgG binding to human neutrophils from two individuals.
Assay [12] has as its target heat-aggregated IgG (HAGG). Description: BIAcore equilibrium binding over immobilised HAGG.
The target in assay [13] is human IgG monomer (Sandoglobulin, Novartis) (human). Description: BIAcore equilibrium binding over immobilised IgG.

A word on the IC50: it is the point on the concentration scale where inhibition reaches its midpoint. As to “rsFcγRIIa monomer (R&D Systems, Cat # 1330-CD/CF) (from UniProt P12318 36-218) (receptor)”, the IC50 in assay [1] was found to be 2.08 µg/mL. For the same substance, in [2], the IC50 of HAGG-induced platelet activation (CD41 and CD62P positive platelets) came to 20.9 µg/mL. In [3], this substance had an IC50 of TNF-α release from MC/9 cells induced by OVA ICs of 17.7 µg/mL.
The pKd is the Kd on a negative log10 scale, so that one unit is a factor of ten. The low end stands for a large Kd, the high end for a small Kd. Consider “recombinant soluble FcγRIIa monomer (rsFcγRIIa monomer), expressed in HEK 293E cells from pBAR426 (from UniProt P12318 34-217) (receptor)”, for which the pKd was 5.77 in assay [4] and 5.98 in [6]. This substance returned a concentration for half-maximal inhibition (IC50) in assay [5] of 10.5 µg/mL.
Turning to “recombinant soluble FcγRIIa head to tail homodimer (rsFcγRIIa dimer), construct of Figure 1 (pBAR397/pBAR427) (from UniProt P12318 34-215; P12318 36-215) (receptor)”, the IC50 was 0.0039 µg/mL in assay [1], 1.1 µg/mL in assay [5] and 0.9 to 1.1 µg/mL in [11]. Further, the fold more potent than the monomer protein in assay [1] was above 500 fold. The pKd in assay [7] was 8.56; in assay [8] it was 8.49; in assay [9] it was 7.00; in [10], 7.00. In [5], this substance displayed a fold more active than rsFcγRIIa monomer of 10 fold. The fold lesser KD1 than the KD of monomeric rsFcγRIIa in assay [12] came out at 300 fold. In addition, the fold greater avidity than the monomeric receptor in assay [13] amounted to 300 fold. Moreover, the IC50 of HAGG-induced platelet activation (CD41 and CD62P positive platelets) in assay [2] amounted to 3.9 µg/mL. Moreover, the fold potency over rsFcγRIIa monomer, HAGG-induced platelet activation in assay [2] is 5 fold. In addition, the IC50 of TNF-α release from MC/9 cells induced by OVA ICs in [3] was found to be 2.1 µg/mL. Also, in [3], the fold potency over rsFcγRIIa monomer, TNF-α release from MC/9 cells is 8 fold.
